Source: publication doi:10.1101/2024.04.08.588565v2

Substrate: O=C1CCCCC1
Assay: purified protein
Type: biochemical, Streptosporangium roseum
Details: 30 mM cyclopropylamine, 0.5 mM NADPH

Protein	Km (Tris pH 8, 25 °C) [µM]	kcat (Tris pH 8, 25 °C) [s⁻¹]	Km (100 mM Tris pH 8.0, 25 °C) [µM]	kcat (100 mM Tris pH 8.0, 25 °C) [s⁻¹]
SrIRED (Streptosporangium roseum DSM 43021; P203A/T241G) (protein) MRDTDVTVLGLGLMGQALAGAFLKDGHATTVWNRSEGKAGQLAEQGAVLASSARDAAEASPLVVVCVSDHAAVRAVLDPLGDVLAGRVLVNLTSGTSEQARATAEWAAERGITYLDGAIMAIPQVVGTADAFLLYSGPEAAYEAHEPTLRSLGAGTTYLGADHGLSSLYDVALLGIMWGTLNSFLHGAALLGTAKVEATTFAAFANRWIEAVTGFVSAYAGQVDQGAYPALDATIDTHVAGVDHLIHESEAAGVNTELPRLVRTLADRALAGGQGGLGYAAMIEQFRSPSA	5100 ± 400	49.3 ± 1.5		
SrIRED (Streptosporangium roseum DSM 43021; T241S) (protein) MRDTDVTVLGLGLMGQALAGAFLKDGHATTVWNRSEGKAGQLAEQGAVLASSARDAAEASPLVVVCVSDHAAVRAVLDPLGDVLAGRVLVNLTSGTSEQARATAEWAAERGITYLDGAIMAIPQVVGTADAFLLYSGPEAAYEAHEPTLRSLGAGTTYLGADHGLSSLYDVALLGIMWGTLNSFLHGAALLGTAKVEATTFAPFANRWIEAVTGFVSAYAGQVDQGAYPALDATIDTHVASVDHLIHESEAAGVNTELPRLVRTLADRALAGGQGGLGYAAMIEQFRSPSA	2310 ± 510	6.02 ± 0.39		
SrIRED (Streptosporangium roseum DSM 43021) (protein) MRDTDVTVLGLGLMGQALAGAFLKDGHATTVWNRSEGKAGQLAEQGAVLASSARDAAEASPLVVVCVSDHAAVRAVLDPLGDVLAGRVLVNLTSGTSEQARATAEWAAERGITYLDGAIMAIPQVVGTADAFLLYSGPEAAYEAHEPTLRSLGAGTTYLGADHGLSSLYDVALLGIMWGTLNSFLHGAALLGTAKVEATTFAPFANRWIEAVTGFVSAYAGQVDQGAYPALDATIDTHVATVDHLIHESEAAGVNTELPRLVRTLADRALAGGQGGLGYAAMIEQFRSPSA			3520 ± 440	2.11 ± 0.08
SrIRED (Streptosporangium roseum DSM 43021; E146V) (protein) MRDTDVTVLGLGLMGQALAGAFLKDGHATTVWNRSEGKAGQLAEQGAVLASSARDAAEASPLVVVCVSDHAAVRAVLDPLGDVLAGRVLVNLTSGTSEQARATAEWAAERGITYLDGAIMAIPQVVGTADAFLLYSGPEAAYEAHVPTLRSLGAGTTYLGADHGLSSLYDVALLGIMWGTLNSFLHGAALLGTAKVEATTFAPFANRWIEAVTGFVSAYAGQVDQGAYPALDATIDTHVATVDHLIHESEAAGVNTELPRLVRTLADRALAGGQGGLGYAAMIEQFRSPSA	2400 ± 300	1.7 ± 0.1		
SrIRED (Streptosporangium roseum DSM 43021; T241A) (protein) MRDTDVTVLGLGLMGQALAGAFLKDGHATTVWNRSEGKAGQLAEQGAVLASSARDAAEASPLVVVCVSDHAAVRAVLDPLGDVLAGRVLVNLTSGTSEQARATAEWAAERGITYLDGAIMAIPQVVGTADAFLLYSGPEAAYEAHEPTLRSLGAGTTYLGADHGLSSLYDVALLGIMWGTLNSFLHGAALLGTAKVEATTFAPFANRWIEAVTGFVSAYAGQVDQGAYPALDATIDTHVAAVDHLIHESEAAGVNTELPRLVRTLADRALAGGQGGLGYAAMIEQFRSPSA	2310 ± 330	5.77 ± 0.24		
